In assay [1] the target is PF-D-Trimer (pre-fusion trimerized SARS-CoV-2 Delta spike protein ectodomain fused to the Trimer Domain) (SARS-CoV-2) (UniProt P0DTC2). Briefly: reducing and non-reducing SDS-PAGE.
For assay [2] the target is unchanged. Nature of the assay: SEC-MALS.
For assay [3], the target named is PF-W-Trimer (pre-fusion trimerized SARS-CoV-2 WA1 spike protein ectodomain fused to the Trimer Domain) (SARS-CoV-2) (UniProt P0DTC2). Briefly: reducing and non-reducing SDS-PAGE.
For assay [4] the target is unchanged. Briefly: SEC-MALS. (Size exclusion chromatography separates by hydrodynamic size, large species first.)

A word on the stoichiometry N: it is a count of units in the complex or per binding partner. On to “PF-D-Trimer (pre-fusion trimerized SARS-CoV-2 Delta spike protein ectodomain fused to the Trimer Domain) (from UniProt P0DTC2 14-1213)”, for which the stoichiometry N in assay [1] and in assay [2] was 3 throughout.

Regarding “PF-W-Trimer (pre-fusion trimerized SARS-CoV-2 WA1 spike protein ectodomain fused to the Trimer Domain) (from UniProt P0DTC2 14-1213)”, the stoichiometry N in assay [3] and in assay [4] was 3 in each case.

For the origin of these results see paper PMC10015519.
